Like-named read-outs stand apart in the source and are kept apart here.
How the values were obtained:
Test in all cases: cryo-EM structure
[1] = molecular target: SARS-CoV-2 Omicron prefusion-stabilized soluble trimeric spike ectodomain (S-trimer) (SARS-CoV-2) (UniProt P0DTC2)
[2] = molecular target: SARS-CoV-2 Omicron prefusion-stabilized soluble trimeric spike ectodomain (S-trimer) (SARS-CoV-2) (UniProt P0DTC2); remark: listed apart in the source
[3] = molecular target: SARS-CoV-2 Delta prefusion-stabilized soluble trimeric spike ectodomain (S-trimer) (SARS-CoV-2) (UniProt P0DTC2)

Substance | stoichiometry N [1] [protomers] | stoichiometry N [2] [protomers] | stoichiometry N [3] [protomers]
SARS-CoV-2 Omicron prefusion-stabilized soluble trimeric spike ectodomain (S-trimer) (from UniProt P0DTC2 14-1208) (natural protein) | 3 | 3 | 
SARS-CoV-2 Delta prefusion-stabilized soluble trimeric spike ectodomain (S-trimer) (from UniProt P0DTC2 14-1208) (natural protein) |  |  | 3

Source: paper PMC8786603
